Experimental data from US7425449.

Tests used:
[1] = target: T1, U153 integrase (Listeria phage U153) (UniProt Q8LTD8); assay: cell_activity
T1 sequence: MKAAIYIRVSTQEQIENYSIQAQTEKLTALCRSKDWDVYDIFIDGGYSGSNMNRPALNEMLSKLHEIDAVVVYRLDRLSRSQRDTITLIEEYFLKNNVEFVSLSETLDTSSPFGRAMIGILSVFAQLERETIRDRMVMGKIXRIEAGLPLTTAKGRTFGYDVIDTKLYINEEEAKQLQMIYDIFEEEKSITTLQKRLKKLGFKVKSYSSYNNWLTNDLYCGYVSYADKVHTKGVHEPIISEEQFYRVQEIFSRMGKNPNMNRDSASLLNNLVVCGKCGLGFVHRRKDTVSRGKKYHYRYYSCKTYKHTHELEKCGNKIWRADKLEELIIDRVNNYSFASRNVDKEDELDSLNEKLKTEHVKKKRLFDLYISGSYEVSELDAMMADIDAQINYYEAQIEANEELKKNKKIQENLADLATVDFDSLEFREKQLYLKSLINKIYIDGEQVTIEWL

[2] = target: T2, PSA integrase (Listeria phage PSA) (UniProt Q8W5Y3); assay: cell_activity; conditions: pPL2 in 10403S and EGDe; attB' side unrelated to 4b, attB side 96-97% identical
T2 sequence: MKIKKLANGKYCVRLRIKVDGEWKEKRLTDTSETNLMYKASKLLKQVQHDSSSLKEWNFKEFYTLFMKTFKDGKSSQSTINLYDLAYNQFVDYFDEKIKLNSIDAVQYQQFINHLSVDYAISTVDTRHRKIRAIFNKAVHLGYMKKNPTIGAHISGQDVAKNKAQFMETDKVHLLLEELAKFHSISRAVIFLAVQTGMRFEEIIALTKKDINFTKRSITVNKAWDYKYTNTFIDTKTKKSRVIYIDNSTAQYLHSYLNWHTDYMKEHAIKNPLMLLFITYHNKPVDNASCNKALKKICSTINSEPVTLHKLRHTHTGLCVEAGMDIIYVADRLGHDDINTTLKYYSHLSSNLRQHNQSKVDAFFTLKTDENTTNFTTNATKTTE

U153 attPP'
activity (integrants per donor cell) ([1]; attPP' partner on pPL1, stable for 100 generations): 0.0002

tRNAArg-attBB' serotype 1/2 (10403S, EGDe)
activity (integrants per donor cell) [2]: 0.0002

comK-attBB'
activity (integrants per donor cell) ([1]; pPL1 integration at comK in DP-L4056, similar frequency in SLCC-5764 and 4b strains, PCR confirmed): 0.0002
